Experimental data taken from publication PMC5895073, “Cell polarity protein Spa2 coordinates Chs2 incorporation at the division site in budding yeast” (PLoS Genetics, 2018).

Target: T1, Strep-tag-Chs2-V377I-215-629 (S. cerevisiae, UniProt P14180 215-629, V377I)
T1 construct: Chs2 (chitin synthase II), S. cerevisiae, residues 215-629 with the hypermorphic change V377I; also called Strep-tag-Chs2-215-629-V377I; source: E. coli Rosetta, in cell extract
T1 sequence (looked up): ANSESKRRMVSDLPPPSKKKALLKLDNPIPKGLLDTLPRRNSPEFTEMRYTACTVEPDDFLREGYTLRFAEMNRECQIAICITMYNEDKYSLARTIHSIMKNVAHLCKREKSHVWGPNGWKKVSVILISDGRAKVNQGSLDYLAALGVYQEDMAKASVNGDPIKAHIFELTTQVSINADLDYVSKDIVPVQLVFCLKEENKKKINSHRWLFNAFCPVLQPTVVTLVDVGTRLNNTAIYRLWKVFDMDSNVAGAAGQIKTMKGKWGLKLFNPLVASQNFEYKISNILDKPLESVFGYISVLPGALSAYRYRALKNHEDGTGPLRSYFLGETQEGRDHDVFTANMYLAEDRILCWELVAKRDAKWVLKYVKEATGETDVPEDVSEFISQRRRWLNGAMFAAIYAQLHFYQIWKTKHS
Assay: pull-down; pairs of E. coli cultures mixed, one cell extract; Strep-tagged protein isolated on Strep-Tactin Superflow resin, eluted with 2.5 mM d-desthiobiotin; immunoblot with anti-Strep and anti-His
Conditions: partners not purified

B1: 6His-tagged-Inn1 (natural protein, S. cerevisiae, UniProt P53901 1-409, looked up)
chain: MSEEVWNGNQGILSVYVSKARDLPNLNKLDKQNVMLRLRIAHMTRASNTLHRAGQNPVFHYLEKFDITPEIKPLMYVEVYCDRRKKSPLPIGRCEIDLLNAIRADPKEGYCTWYELKRSGDEFAGTIFIELTFTPKVPRLNRDDLNKEMDRLDSSMAMRPIPPLPTESEYDYVHGSTMRQITPQCVSTSHEDKDEGQPYRNGNVFSMSSKSDTAVLANSNDPIILPPTFSASMGTTSTLETNDTAISNTSNTKFHFANLRKLKEKINIFKNPDSSTNNCQNESNKVDIEALQKAIGVTSLSYDEDDDDDDENDAFYSSSHRVSHNYNQPPLPPIPTRDDMSNYSSSRNTPLVRRDRPSRLDSSSPNSHPHPSGLNSPKLPPLPTTSNSNFNSRKNSMSPTRKRPPPRLS
notes: Inn1, S. cerevisiae; also called 6His-Inn1; source: E. coli Rosetta, in cell extract
B1 was tested, and the “amount of Inn1 co-purified, fold over that with Strep-tag-Chs2-215-629” value was roughly 3 fold.
